Blank lines part the entries; values can stand above or below the molecule they belong to.
Key:
[1] = molecular target: GLP-1R on CHO cells (CHO/GLP-1R); assay: cell-based or functional assay
[2] = molecular target: T1, Chinese hamster ovary (CHO) cell-derived soluble recombinant human G-CSF receptor (human, UniProt Q99062 25-627); assay: SPR (BIAcore 3000), receptor amine-coupled to the chip, analyte 6.25-100 nmol/L, 25 °C, 1:1 Langmuir fit
T1 construct: extracellular domain; Immobilised by amine coupling on the sensor chip; also called soluble human G-CSF receptor; R&D Systems 381-050/CF
T1 sequence (looked up): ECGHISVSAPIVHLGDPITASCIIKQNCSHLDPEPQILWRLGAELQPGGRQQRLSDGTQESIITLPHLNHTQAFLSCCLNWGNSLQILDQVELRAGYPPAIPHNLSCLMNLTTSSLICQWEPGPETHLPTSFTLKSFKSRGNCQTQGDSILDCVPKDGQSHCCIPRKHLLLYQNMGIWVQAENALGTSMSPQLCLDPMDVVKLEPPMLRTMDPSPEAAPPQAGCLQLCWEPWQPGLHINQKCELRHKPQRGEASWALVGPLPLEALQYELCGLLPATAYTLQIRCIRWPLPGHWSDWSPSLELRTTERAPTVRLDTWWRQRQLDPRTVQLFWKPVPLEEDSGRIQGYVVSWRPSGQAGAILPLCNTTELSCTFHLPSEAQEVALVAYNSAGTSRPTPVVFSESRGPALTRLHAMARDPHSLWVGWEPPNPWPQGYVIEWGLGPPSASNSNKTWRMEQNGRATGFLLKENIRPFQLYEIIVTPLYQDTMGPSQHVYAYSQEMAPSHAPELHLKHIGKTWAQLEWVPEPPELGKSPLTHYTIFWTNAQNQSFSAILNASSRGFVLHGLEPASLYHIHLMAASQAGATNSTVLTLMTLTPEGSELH
Description: Surface plasmon resonance technology and the BIAcore 3000 biosensor (GE healthcare) were employed to measure in vitro binding affinity to the G-CSF receptor. Amine-coupling chemistry was used to immobilize the G-CSF receptor on CMS biosensor chip. […] The CMS sensor chip surface was activated by injecting a 1:1 mixture of 0.1 mol/L N-hydroxysuccinimide (GE healthcare) and 0.1 mol/L 3-(N,N-dimethylamino)propyl-N-ethylcarbodiamide (GE Healthcare). […] The chip surface was then blocked with ethanolamine/HCl (GE Healthcare), pH 8.5, and washed with a regeneration solution (50 mmol/L NaCl; 5 mmol/L NaOH). […] Binding affinity was calculated using the 1:1 Langmuir fitting model for each test material.

[3] = molecular target: T2, Fc fragment of eflapegrastim (human, UniProt P01861 107-325 = IgG part, aglycosylated (made in recombinant E. coli cells)); assay: ELISA with GST-FcγRIIB, detection with anti-GST antibody
T2 construct: tested alone, without PEG and G-CSF; also called aglycosylated IgG4-Fc fragment; immunoglobulin Fc fragment
Description: For C1q, FcγRIIB, FcγRIIIA, and FcRn binding assays, serial dilutions of the test materials were added to 96-well microplates coated with C1q, or GST fusion proteins of FcγRIIB or FcγRIIIA, or FcRn αβ2. After incubation and washing, HRP-conjugated anti-C1q antibody was added for C1q binding assay, and rabbit-anti-GST antibody and HRP-conjugated anti-rabbit IgG antibody were sequentially added for FcγRIIB, FcγRIIIA, and FcRn binding assays. The absorbance was measured at 450 nm as described above for FcγRI binding assay.

T2 sequence (P01861 other isoform, or with tags, fused parts or gaps limits assumed): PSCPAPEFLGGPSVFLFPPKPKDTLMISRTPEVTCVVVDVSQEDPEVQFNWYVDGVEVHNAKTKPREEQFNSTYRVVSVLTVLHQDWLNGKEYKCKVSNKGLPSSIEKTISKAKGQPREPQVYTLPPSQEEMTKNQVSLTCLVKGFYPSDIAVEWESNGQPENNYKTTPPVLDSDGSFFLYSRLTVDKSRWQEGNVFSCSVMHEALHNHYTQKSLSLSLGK

% vs. Experimental group, CHO/GLP-1R bioassay [1]: 16.1%
EC50 (ng/ml), in vitro activity-CHO/GLP-1R bioassay [1]: 59000 ng/mL
Molecule: CA Exendin (lysine)-PEG-(lysine) Fc (Fc fusion)

Kd [2]: 2.9 nM
B1: pegfilgrastim (ligand, human, UniProt P09919-2 31-204, looked up)
chain: TPLGPASSLPQSFLLKCLEQVRKIQGDGAALQEKLCATYKLCHPEELVLLGHSLGIPWAPLSSCPSQALQLAGCLSQLHSGLFLYQGLLQALEGISPELGPTLDTLQLDVADFATTIWQQMEELGMAPALQPTQGAMPAFASAFQRRAGGVLVASHLQSFLEVSYRVLRHLAQP
modifications: N-terminal methionine residue pegylated with a 20 kDa polyethylene glycol
notes: Commercial product; also called Neulasta

binding result [3]: no binding
B2: GST fusion protein of FcγRIIB (receptor, UniProt P31994 43-217, looked up)
chain: TPAAPPKAVLKLEPQWINVLQEDSVTLTCRGTHSPESDSIQWFHNGNLIPTHTQPSYRFKANNNDSGEYTCQTGQTSLSDPVHLTVLSEWLVLQTPHLEFQEGETIVLRCHSWKDKPLVKVTFFQNGKSKKFSRSDPNFSIPQANHSHSGDYHCTGNIGYTLYSSKPVTITVQAP
notes: Order of receptor and GST unknown; not shown: GST
